Reference: article PMC10397247

How the values were obtained:
Assay in all cases: two-hybrid library CCmax;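 note: natural log of median RNA to DNA barcode read ratio; higher means stronger binding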
[1] = target: T1, 4H1478-AA
T1 chain: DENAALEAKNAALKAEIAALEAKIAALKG

[2] = target: T2, 4H2649-AA; settings: mean of both orientations
T2 chain: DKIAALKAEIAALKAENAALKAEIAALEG

[3] = target: T3, 4H745-AA; settings: mean of both orientations
T3 chain: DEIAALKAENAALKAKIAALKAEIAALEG

[4] = target: T4, 4H909-AA; settings: mean of both orientations
T4 chain: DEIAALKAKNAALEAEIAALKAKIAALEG

[5] = target: T5, 4H3410-AA; settings: mean of both orientations
T5 chain: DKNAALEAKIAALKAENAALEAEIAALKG

[6] = target: T6, 4H3395-AA; settings: mean of both orientations
T6 chain: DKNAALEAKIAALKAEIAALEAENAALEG

[7] = target: T7, 4H2330-AA; settings: mean of both orientations
T7 chain: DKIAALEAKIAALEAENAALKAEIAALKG

[8] = target: T8, 4H2162-AA; settings: mean of both orientations
T8 chain: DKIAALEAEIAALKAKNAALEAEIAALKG

[9] = target: T9, 4H3120-AA; settings: mean of both orientations
T9 chain: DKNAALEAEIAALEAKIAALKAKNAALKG

[10] = target: T10, 4H3016-AA; settings: mean of both orientations
T10 chain: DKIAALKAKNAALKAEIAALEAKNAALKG

[11] = target: T11, 4H850-AA; settings: mean of both orientations
T11 chain: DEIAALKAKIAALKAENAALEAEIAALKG

[12] = target: T12, 4H2725-AA; settings: mean of both orientations
T12 chain: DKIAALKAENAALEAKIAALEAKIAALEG

[13] = target: T13, 4H1864-AA; settings: mean of both orientations
T13 chain: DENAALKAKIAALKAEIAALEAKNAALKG

[14] = target: T14, 4H3009-AA; settings: mean of both orientations
T14 chain: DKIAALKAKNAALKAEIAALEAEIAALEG

[15] = target: T15, 4H2438-AA; settings: mean of both orientations
T15 chain: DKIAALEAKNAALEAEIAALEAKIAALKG

[16] = target: T16, 4H94-AA; settings: mean of both orientations
T16 chain: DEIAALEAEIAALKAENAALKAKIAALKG

[17] = target: T17, 4H570-AA; settings: mean of both orientations
T17 chain: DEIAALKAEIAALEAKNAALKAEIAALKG

[18] = target: T18, 4H1597-AA; settings: mean of both orientations
T18 chain: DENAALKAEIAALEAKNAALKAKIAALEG

[19] = target: T19, 4H2865-AA; settings: mean of both orientations
T19 chain: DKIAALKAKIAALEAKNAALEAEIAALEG

[20] = target: T20, 4H3165-AA; settings: mean of both orientations
T20 chain: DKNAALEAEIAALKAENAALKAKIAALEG

[21] = target: T21, 4H458-AA; settings: mean of both orientations
T21 chain: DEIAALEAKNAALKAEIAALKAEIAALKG

[22] = target: T22, 4H485-AA; settings: mean of both orientations
T22 chain: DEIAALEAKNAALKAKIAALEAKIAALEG

[23] = target: T23, 4H3590-AA; settings: mean of both orientations
T23 chain: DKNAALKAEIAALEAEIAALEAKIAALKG

[24] = target: T24, 4H1842-AA; settings: mean of both orientations
T24 chain: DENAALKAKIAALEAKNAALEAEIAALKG

[25] = target: T25, 4H891-AA; settings: mean of both orientations
T25 chain: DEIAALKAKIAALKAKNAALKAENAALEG

[26] = target: T26, 4H310-AA; settings: mean of both orientations
T26 chain: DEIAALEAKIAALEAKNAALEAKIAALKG

[27] = target: T27, 4H174-AA; settings: mean of both orientations
T27 chain: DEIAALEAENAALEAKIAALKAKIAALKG

[28] = target: T28, 4H710-AA
T28 chain: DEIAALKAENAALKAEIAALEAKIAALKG

[29] = target: T29, 4H2473-AA; settings: mean of both orientations
T29 chain: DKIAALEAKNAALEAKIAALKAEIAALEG

[30] = target: T30, 4H930-AA; settings: mean of both orientations
T30 chain: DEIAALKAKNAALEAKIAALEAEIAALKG

[31] = target: T31, 4H171-AA; settings: mean of both orientations
T31 chain: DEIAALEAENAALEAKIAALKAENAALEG

[32] = target: T32, 4H797-AA; settings: mean of both orientations
T32 chain: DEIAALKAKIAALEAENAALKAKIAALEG

[33] = target: T33, 4H536-AA; settings: mean of both orientations
T33 chain: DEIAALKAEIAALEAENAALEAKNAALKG

[34] = target: T34, 4H1579-AA; settings: mean of both orientations
T34 chain: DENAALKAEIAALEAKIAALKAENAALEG

[35] = target: T35, 4H3697-AA; settings: mean of both orientations
T35 chain: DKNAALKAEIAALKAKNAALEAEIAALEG

[36] = target: T36, 4H2109-AA; settings: mean of both orientations
T36 chain: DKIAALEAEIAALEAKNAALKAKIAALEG

[37] = target: T37, 4H1877-AA; settings: mean of both orientations
T37 chain: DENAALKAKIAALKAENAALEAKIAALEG

[38] = target: T38, 4H2698-AA; settings: mean of both orientations
T38 chain: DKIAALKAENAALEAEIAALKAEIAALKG

[39] = target: T39, 4H3381-AA; settings: mean of both orientations
T39 chain: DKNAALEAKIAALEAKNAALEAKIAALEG

[40] = target: T40, 4H2274-AA; settings: mean of both orientations
T40 chain: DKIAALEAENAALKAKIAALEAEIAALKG

[41] = target: T41, 4H3865-AA; settings: mean of both orientations
T41 chain: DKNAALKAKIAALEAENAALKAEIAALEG

[42] = target: T42, 4H2389-AA; settings: mean of both orientations
T42 chain: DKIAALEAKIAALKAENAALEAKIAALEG

[43] = target: T43, 4H1626-AA; settings: mean of both orientations
T43 chain: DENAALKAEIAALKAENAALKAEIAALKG

[44] = target: T44, 4H629-AA; settings: mean of both orientations
T44 chain: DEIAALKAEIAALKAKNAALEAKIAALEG

[45] = target: T45, 4H3753-AA; settings: mean of both orientations
T45 chain: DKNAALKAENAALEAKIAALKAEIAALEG

[46] = target: T46, 4H3130-AA; settings: mean of both orientations
T46 chain: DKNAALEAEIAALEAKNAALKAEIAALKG

[47] = target: T47, 4H2253-AA; settings: mean of both orientations
T47 chain: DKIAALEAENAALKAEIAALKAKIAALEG

DENAALEAKNAALKAEIAALEAKIAALKG [4H1478-AA]
interaction score [1]: 0.0991 | interaction score [2]: -1.48 | interaction score [3]: 2.14 | interaction score [4]: -0.497 | interaction score [5]: -1 | interaction score [6]: 1.1 | interaction score [7]: -1.56 | interaction score [8]: -1.13 | interaction score [9]: -0.624 | interaction score [10]: -1.29 | interaction score [11]: 0.0104 | interaction score [12]: 1.78 | interaction score [13]: 1.68 | interaction score [14]: 0.472 | interaction score [15]: -0.717 | interaction score [16]: -1.45 | interaction score [17]: -1.51 | interaction score [18]: -0.494 | interaction score [19]: -1.39 | interaction score [20]: -1.68 | interaction score [21]: -0.241 | interaction score [22]: -0.796 | interaction score [23]: 0.946 | interaction score [24]: -1.06 | interaction score [25]: -1.45 | interaction score [26]: -0.927 | interaction score [27]: 1.4 | interaction score [28]: -0.15 | interaction score [29]: 2.04 | interaction score [30]: -0.754 | interaction score [31]: 0.9 | interaction score [32]: -1.28 | interaction score [33]: -1.16 | interaction score [34]: -0.103 | interaction score [35]: -1.54 | interaction score [36]: -0.882 | interaction score [37]: -0.558 | interaction score [38]: 1.64 | interaction score [39]: -1.47 | interaction score [40]: -0.761 | interaction score [41]: -1.31 | interaction score [42]: 0.0289 | interaction score [43]: -1.52 | interaction score [44]: -1.23 | interaction score [45]: 2.25 | interaction score [46]: -0.211 | interaction score [47]: -0.889
